Here are results for 22 molecules from patent US20100092974A1, “METHODS FOR SCREENING FOR MODULATORS OF CCRL2” (The Board of Trustees of the Leland Stanford Junior …, priority 2008, published 2010).

For one test, the system named is peritoneal macrophages. Briefly: mCCRL2 expression on peritoneal macrophages cultured 24 h with stimuli. As to conditions: 24 h culture with stimulus.
Test [1] concerns the target T1, mCCRL2 (Mus musculus, UniProt O35457).
T1 construct: The coding regions of mCCRL2, huCCRL2, mCRTH2, and huCCR10 were amplified from genomic DNA; expressed in transfected cells
T1 sequence (O35457 1-360): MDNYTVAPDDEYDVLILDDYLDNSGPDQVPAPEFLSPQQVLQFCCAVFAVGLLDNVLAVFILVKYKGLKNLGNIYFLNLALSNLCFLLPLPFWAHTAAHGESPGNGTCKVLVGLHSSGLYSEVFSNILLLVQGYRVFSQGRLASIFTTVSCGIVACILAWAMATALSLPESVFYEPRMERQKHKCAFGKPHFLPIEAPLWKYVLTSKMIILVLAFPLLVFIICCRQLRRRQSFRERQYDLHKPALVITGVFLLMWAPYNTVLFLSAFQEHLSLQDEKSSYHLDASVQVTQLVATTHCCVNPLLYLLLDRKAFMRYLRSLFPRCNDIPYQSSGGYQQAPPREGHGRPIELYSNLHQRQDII
In words: in vitro transwell chemotaxis, mCCRL2/L1.2 transfectants. Type of test: cell-based. As to conditions: range of doses; CXCL12 and CCL19 act via endogenous CXCR4 and CCR7. As for the experimental part:
(§1) For migration experiments using cell lines, 2.5×10^5 cells/100 μl chemotaxis media (RPMI+10% fetal calf serum) were added to the top wells of 5-um pore transwell inserts (Costar, Corning, N.Y., USA), and test samples in 600 μl media were added to the bottom wells. After incubating the transwell plates for 1.5 hours at 37° C., the bottom wells were harvested and flow cytometry was used to assess migration. For primary cell chemotaxis, 1×10^6 cells/100 μl were added to the top well, and, following a 2 hour incubation at 37° C., polystyrene beads (15.0 μm diameter, Polysciences, Warrington, Pa., USA) were added to each well to facilitate normalization of the cell count. The cells were then stained for c-kit, F4/80, and/or CD11b expression and analyzed by flow cytometry. A ratio was generated and percent input migration was calculated.

For test [2], the system named is mouse peritoneal mast cells. Briefly: intracellular calcium mobilization, freshly isolated peritoneal mast cells. Type of test: cell-based. As to conditions: 1000 nM chemerin, 100 nM ATP. How it is done:
(§2) Chemoattractant-stimulated Ca^2+-mobilization was performed following Alliance for Cell Signaling protocol ID PP00000210. Cells (3×10^6/mL) were loaded with 4 μM Fluo4-AM and 0.16% Pluronic acid F-127 (Molecular Probes) in modified Iscove's medium (Iscove's medium with 1% heat inactivated bovine calf serum and 2 mM L-glutamine, Invitrogen) for 30 minutes at 37° C. The samples were mixed every 10 minutes during loading, washed once, resuspended at up to 2×10^6/mL in the same buffer, and allowed to rest in the dark for 30 minutes at room temperature. Chemoattractant-stimulated change in Ca^2+-sensitive fluorescence of Fluo-4 was measured over real-time with a FACsScan flow cytometer and CellQuest software (BD Biosciences) at room temperature under constant stirring (500 rpm). Fluorescent data were acquired continuously up to 1024 seconds at 1-second intervals. The samples were analyzed for 45 seconds to establish basal state, removed from the nozzle to add the stimuli, and then returned to the nozzle. Mean channel fluorescence over time was analyzed with FlowJo (TreeStar, Ashland, Oreg., USA) software. […] 500 μl of these chemerin-loaded cells were added to mCMKLR1/L1.2 cells loaded with Fluo4-AM, and calcium mobilization was evaluated.

The next test concerns bEND3 cells. Briefly: CCRL2 expression in TNFα-treated bEND3 endothelioma cells. It is filed as cell-based, mouse. The following applies: 24-hour treatment, 20 ng/ml. The source says:
FIG. 22. […] Panel A. Robust upregulation of CCRL2 RNA by microarray analysis (Affymetrix®). Panel B. TNFα-treated bEND3 cells acquire CCRL2 surface protein (but not CMKLR1 expression) as determined by mAb staining and flow cytometry. Panel C. […] CCRL2/L1.2 and empty vector pcDNA3/L1.2 transfectants are shown as controls. The mean+/−SD of triplicate wells is shown for an individual experiment. A representative data set of 2 performed with similar results is shown for parts B and C, and n=1 for part A.
2005. J Exp Med 201: 509-515). […] We observed the same TNFα-mediated induction of protein expression by mAb staining […].

Test [3] has as its system mouse peritoneal mast cells. Briefly: in vitro transwell chemotaxis, peritoneal mast cells. Type of test: cell-based. As to conditions: SSChigh CD11b- c-kit+ cells. As for the experimental part:
as §1

The target in test [4] is T1, mCCRL2. In words: intracellular calcium mobilization, mCCRL2/L1.2 transfectants. Type of test: cell-based. As to conditions: Fluo-4; CXCL12 acts via endogenous CXCR4. As for the experimental part:
as §2

A further test concerns the target T2, huCCRL2 (Homo sapiens, UniProt O00421).
T2 construct: The coding regions of mCCRL2, huCCRL2, mCRTH2, and huCCR10 were amplified from genomic DNA; expressed in transfected cells
T2 sequence (O00421 1-344): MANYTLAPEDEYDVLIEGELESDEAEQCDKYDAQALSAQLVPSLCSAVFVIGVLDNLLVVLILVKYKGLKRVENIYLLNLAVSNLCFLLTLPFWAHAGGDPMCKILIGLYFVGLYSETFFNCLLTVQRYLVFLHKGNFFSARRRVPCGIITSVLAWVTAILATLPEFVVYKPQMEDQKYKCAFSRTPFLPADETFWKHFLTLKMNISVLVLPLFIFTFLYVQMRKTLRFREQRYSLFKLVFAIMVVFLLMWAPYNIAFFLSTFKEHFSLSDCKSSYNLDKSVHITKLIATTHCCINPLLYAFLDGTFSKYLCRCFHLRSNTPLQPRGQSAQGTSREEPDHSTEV
In words: in vitro transwell chemotaxis, huCCRL2-HA/L1.2 transfectants. It is filed as cell-based. The following applies: range of doses; CXCL12 and CCL19 act via endogenous CXCR4 and CCR7. How it is done:
as §1

Test [5] addresses T3, mouse CCRL2 (chemokine (CC motif) receptor-like 2), untagged (mouse, UniProt O35457 1-360).
T3 construct: whole, on cells; also called mCCRL2; mCCRL2/L1.2
T3 sequence (looked up): T1 sequence (O35457 1-360)
Briefly: flow cytometry on peritoneal mast cells (F4/80-, c-kit+ gate) of WT and CCRL2 KO mice, 10 nM His8-tagged isoform, anti-His6 PE [panel E].

In test [6] the target is T4, mouse CCRL2 with an engineered N-terminal hemagglutinin (HA) tag (mouse, UniProt O35457 1-360).
T4 construct: whole, on cells; also called mCCRL2-HA; mCCRL2-HA/L1.2; not shown: engineered N-terminal HA tag
T4 sequence (looked up): T1 sequence (O35457 1-360)
In words: flow cytometry; untagged chemerin competes with 10 nM His8-tagged serum form human chemerin, detected with anti-His6 PE.

The target in test [7] is T5, human CCRL2 with an engineered N-terminal hemagglutinin (HA) tag (human, UniProt O00421 1-344).
T5 construct: whole, on cells; also called huCCRL2-HA; not shown: engineered N-terminal HA tag
T5 sequence (looked up): T2 sequence (O00421 1-344)
Described as above.

Test [8] deals with mouse CCRL2 (chemokine (CC motif) receptor-like 2), untagged (mouse) (UniProt O35457). In words: saturation binding of 125I-chemerin 21-148 to mCCRL2/L1.2 cells, one-site fit; saturation binding, single site.
Test [9] concerns the target T3, mouse CCRL2 (chemokine (CC motif) …). In words: flow cytometry on WT peritoneal mast cells; competitor displaced: 10 nM His8-tagged serum form chemerin, anti-His6 PE [panel E].

With poly:IC, the “mCCRL2 protein expression on peritoneal macrophages” value (from here on “mCCRL2 protein expression”) in the test on peritoneal macrophages was “upregulated”. For “CCL7: chemokine purchased from R&D Systems”, the transwell migration entry in the test with mCCRL2 [1] is reported as “did not induce migration”. As for `Nc1ncnc2c1ncn2[C@@H]1O[C@H](COP(=O)(O)OP(=O)(O)OP(=O)(O)O)[C@@H](O)[C@H]1O` [ATP, reference compound], the intracellular calcium mobilization result in test [2] is “responded”. On to CCL11: known chemoattractant, for which, in the test with mCCRL2 [1], the transwell migration entry is given as “none stimulated”.

On to TNFα, for which, in the test with bEND3 cells, the “CCRL2 mRNA” value is given as “highly upregulated” and the “CCRL2 protein expression by mAb staining” value is recorded as “induction”. Besides, in the test on peritoneal macrophages, the “mCCRL2 protein expression” value is “upregulated”. In the case of “SCF: stem cell factor, positive control for mast cell chemotaxis [reference compound]”, in [3], the transwell migration result is “migrated”. In the case of CXCL9: known chemoattractant, the transwell migration entry with mCCRL2 [1] is “none stimulated”.

As to “CXCL12: chemokine, positive control via CXCR4”, the transwell migration result with mCCRL2 [1] and in the test with huCCRL2 was “migrated” throughout. The intracellular calcium mobilization entry with mCCRL2 [4] is “responded”. As for “CCL5: chemokine purchased from R&D Systems”, in the test with mCCRL2 [1], the transwell migration entry is listed as “did not induce migration”. As to CCL28: known chemoattractant, the transwell migration result in the test with mCCRL2 [1] is reported as “none stimulated”.

As to CXCL13: known chemoattractant, the transwell migration entry with mCCRL2 [1] is given as “none stimulated”.

Regarding “CCL19: chemokine, positive control via CCR7”, the transwell migration entry with mCCRL2 [1] and with huCCRL2 was “migrated” each time. On to IFNγ: cytokine purchased from Roche, for which the “mCCRL2 protein expression” value with peritoneal macrophages is reported as “upregulated”.

B1: CCL27: known chemoattractant (protein, UniProt Q9Y4X3 25-112, looked up)
C-C motif chemokine 27: FLLPPSTACCTQLYRKPLSDKLLRKVIQVELQEADGDCHLQAFVLHLAQRSICIHPQNPSLSQWFEHQERKLHGTLPKLNFGMLRKMG
As for B1, the transwell migration entry with mCCRL2 [1] was “none stimulated”.

B2: carboxyl-terminal His8-tagged "pro-form" human chemerin (ligand)
chain: ADPELTEAQRRGLQVALEEFHKHPPVQWAFQETSVESAVDTPFPAGIFVRLEFKLQQTSCRKRDWKKPECKVRPNGRKRKCLACIKLGSEDKVLGRLVHCPIETQVLREAEEHQETQCLRVQRAGEDPHSFYFPGQFAFSKALPRSPHHHHHHHH
notes: Printed with an ellipsis, and with six H although called His8-tagged; also called His8-tagged chemerin isoform
With B2, the binding result in test [5] is given as “binds”.

B3: CCL8: chemokine purchased from R&D Systems (protein, UniProt P80075 24-99, looked up)
C-C motif chemokine 8: QPDSVSIPITCCFNVINRKIPIQRLESYTRITNIQCPKEAVIFKTKRGKEVCADPKERWVRDSMKHLDQIFQNLKP
In the case of B3, the transwell migration result in the test with mCCRL2 [1] was “did not induce migration”.

B4: untagged "serum form" human chemerin (His8 tag removed by carboxypeptidase A) (ligand)
chain: ADPELTEAQRRGLQVALEEFHKHPPVQWAFQETSVESAVDTPFPAGIFVRLEFKLQQTSCRKRDWKKPECKVRPNGRKRKCLACIKLGSEDKVLGRLVHCPIETQVLREAEEHQETQCLRVQRAGEDPHSFYFPGQFAPH
notes: The assays print 'untagged serum form chemerin' or 'serum form chemerin' without the species; Printed with an ellipsis; also called untagged serum form chemerin; untagged chemerin
Consider B4, for which the values for the EC50 in test [6] and in [7] were 45 nM and 7 nM, respectively.

B5: radioiodinated human chemerin (residues 21-148) (ligand, UniProt Q99969 21-148, looked up)
chain: ELTEAQRRGLQVALEEFHKHPPVQWAFQETSVESAVDTPFPAGIFVRLEFKLQQTSCRKRDWKKPECKVRPNGRKRKCLACIKLGSEDKVLGRLVHCPIETQVLREAEEHQETQCLRVQRAGEDPHSF
modifications: 125I-labelled (radioiodinated), specific activity 97 Ci/g
In turn, B5 displayed a Kd in test [8] of 1.6 nM. In other words, the single-digit nanomolar range.

B6: CCL17: known chemoattractant (protein, UniProt Q92583 24-94, looked up)
C-C motif chemokine 17: ARGTNVGRECCLEYFKGAIPLRKLKTWYQTSEDCSRDAIVFVTVQGRAICSDPNNKRVKNAVKYLQSLERS
Turning to B6, the transwell migration entry with mCCRL2 [1] was “none stimulated”.

B7: CCL22: known chemoattractant (protein, UniProt O00626 25-93, looked up)
C-C motif chemokine 22: GPYGANMEDSVCCRDYVRYRLPLRVVKHFYWTSDSCPRPGVVLLTFRDKEICADPRVPWVKMILNKLSQ
For the molecule B7, in the test with mCCRL2 [1], the transwell migration result is listed as “none stimulated”.

B8: pro-form (1000 nM untagged chemerin isoform) (ligand)
chain: ADPELTEAQRRGLQVALEEFHKHPPVQWAFQETSVESAVDTPFPAGIFVRLEFKLQQTSCRKRDWKKPECKVRPNGRKRKCLACIKLGSEDKVLGRLVHCPIETQVLREAEEHQETQCLRVQRAGEDPHSFYFPGQFAFSKALPRSPH
notes: also called untagged pro-form human chemerin, His8 tag removed by carboxypeptidase A
B8: in [9], the binding result is listed as “binds”.

B9: CCL25: known chemoattractant (protein, UniProt O15444 24-150, looked up)
C-C motif chemokine 25: QGVFEDCCLAYHYPIGWAVLRRAWTYRIQEVSGSCNLPAAIFYLPKRHRKVCGNPKSREVQRAMKLLDARNKVFAKLHHNTQTFQAGPHAVKKLSSGNSKLSSSKFSNPISSSKRNVSLLISANSGL
Turning to B9, the transwell migration result in the test with mCCRL2 [1] is listed as “none stimulated”.
